Consider 3 proteins from US20250064976A1 (BROAD INSTITUTE, published 2025).

Data set [1] concerns the molecule itself. In words: capsid formation (homo-oligomer).
Data set [2] deals with the molecule itself. Briefly: TEM of the HA-immunoprecipitated VLP fraction from HEK293FT cells.
Description: Successful isolation was confirmed by Coommassie staining and protein capsids were imaged using TEM as described previously.
Data set [3] deals with the molecule itself. In words: TEM of protein purified from E. coli.

B1: human paraneoplastic antigen Ma2 (PNMA2), recombinant, purified from E. coli (other)
chain: ALALLEDWCRIMSVDEQKSLMVTGIPADFEEAEIQEVLQETLKSLGRYRLLGKIFRKQENANAVLLELLEDTDVSAIPSEVQGKGGVWKVIFKTPNQDTEFLERLNLFLEKEGQTVSGMFRALGQEGVSPATVPCISPELLAHLLGQAMAHAPQPLLPMRYRKLRVFSGSAVPAPEEESFEVWLEQATEIVKEWPVTEAEKKRWLAESLRGPALDLMHIVQADNPSISVEECLEAFKQVFGSLESRRTAQVRYLKTYQEEGEKVSAYVLRLETLLRRAVEKRAIPRRIADQVRLEQVMAGATLNQMLWCRLRELKDQGPPPSFLELMKVIREEEEEEASFENESIEEPEERDGYGRWNHEGDD
notes: Written as the monomer; Only residues 158-340 were resolved by cryo-EM; also called PNMA2 monomer; wild-type PNMA2
For B1, the binding result in data set [1] is on record as “binds”.

B2: HA-tagged PNMA2 overexpressed in HEK293FT cells (other)
chain: ALALLEDWCRIMSVDEQKSLMVTGIPADFEEAEIQEVLQETLKSLGRYRLLGKIFRKQENANAVLLELLEDTDVSAIPSEVQGKGGVWKVIFKTPNQDTEFLERLNLFLEKEGQTVSGMFRALGQEGVSPATVPCISPELLAHLLGQAMAHAPQPLLPMRYRKLRVFSGSAVPAPEEESFEVWLEQATEIVKEWPVTEAEKKRWLAESLRGPALDLMHIVQADNPSISVEECLEAFKQVFGSLESRRTAQVRYLKTYQEEGEKVSAYVLRLETLLRRAVEKRAIPRRIADQVRLEQVMAGATLNQMLWCRLRELKDQGPPPSFLELMKVIREEEEEEASFENESIEEPEERDGYGRWNHEGDD
notes: also called HA-PNMA2; PNMA2-HA; not shown: HA tag at the N-terminus
Regarding B2, in data set [2], the binding result is on record as “binds”.

B3: PNMA2(340)-CCMV(30), engineered PNMA2 (other)
chain: MALALLEDWCRIMSVDEQKSLMVTGIPADFEEAEIQEVLQETLKSLGRYRLLGKIFRKQENANAVLLELLEDTDVSAIPSEVQGKGGVWKVIFKTPNQDTEFLERLNLFLEKEGQTVSGMFRALGQEGVSPATVPCISPELLAHLLGQAMAHAPQPLLPMRYRKLRVFSGSAVPAPEEESFEVWLEQATEIVKEWPVTEAEKKRWLAESLRGPALDLMHIVQADNPSISVEECLEAFKQVFGSLESRRTAQVRYLKTYQEEGEKVSAYVLRLETLLRRAVEKRAIPRRIADQVRLEQVMAGATLNQMLWCRLRELKDQGPPPSFLELMKVIREEEEEEASMSTVGTGKLTRAQRRAAARKNKRNTRVVQP
notes: Written as the monomer; The disordered C-terminal region of PNMA2 is replaced by the N-terminal 30 residues of CCMV; It was purified from E. coli and forms capsids like wild-type PNMA2; also called ePNMA2; PNMA2(1-340)-CCMV
B3: in data set [3], the binding result is “binds”.
